# System: CD14+ myeloid cells
# Assay: PBMC stimulation with IFNγ, PD-L1 on CD14+ myeloid cells by flow cytometry
# Type: cell-based, human
# Conditions: JAK3 V722I positive patients vs JAK3 P132T positive patient or blood donor controls, 250 ng/ml, 48 h
# Description: Peripheral blood mononuclear cells (PBMCs) from patients identified as having JAK3 V722I or P132T variants (see sequencing section above) and healthy donors were isolated from fresh blood and platelet-depleted blood collars, respectively, by Ficoll method. PBMCs were plated at a density of 7.5×10^5 cells/ml in a 48-well plate and stimulated with 250 ng/ml IFNγ (PBL Interferon Source). No stimulation controls were set-up for each donor. At 48 h post-stimulation, cells were treated with 2 mM EDTA and collected for flow cytometry to assess for PD-L1 expression on CD14+ myeloid cells. Cells were stained with Live/Dead yellow viability dye (Invitrogen), as well as antibodies (BD Biosciences) against CD14 (M5E2), CD11b (ICRF44), and PD-L1 (MIH1) for 30 min at 4 C, and then fixed in BD Cytofix® buffer prior to analyses on BD LSR Fortessa SORT® HTS flow cytometer. Given the need to compare the difference between two means in relation to the variation in the data, a t-test was used to compare PD-L1 inducibility between V722I and non-V722I monocytes.
molecule,measurement,value
"IFN-γ: cytokine known to trigger PD-L1 in the tumor immune microenvironment (protein, UniProt P01579 24-161, looked up) Interferon gamma: QDPYVKEAENLKKYFNAGHSDVADNGTLFLGILKNWKEESDRKIMQSQIVSFYFKLFKNFKDDQSIQKSVETIKEDMNVKFFNSNKKKRDDFEKLTNYSVTDLNVQRKAIHELIQVMAELSPAAKTGKRKRSQMLFRG",Expression of PD-L1 on CD14+ myeloid cells,modest but significantly increased

# Source: US20170115291A1, “Activating JAK Kinase Biomarkers Predictive of Anti-Immune Checkpoint Inhibitor Response” (Dana-Farber Cancer Institute, Inc., priority 2014, published 2017)
